What was measured:
[1] = system: 9-mer (SEQ ID NO:12) PRCGNPDVA
[2] = system: 10-mer (SEQ ID NO:13) NYNFFPRKPK
[3] = system: 19-mer (SEQ ID NO:11) PRCGNPDVANYNFFPRKPK

Active MMP-9 enzyme, sequence (chain, as listed by the source): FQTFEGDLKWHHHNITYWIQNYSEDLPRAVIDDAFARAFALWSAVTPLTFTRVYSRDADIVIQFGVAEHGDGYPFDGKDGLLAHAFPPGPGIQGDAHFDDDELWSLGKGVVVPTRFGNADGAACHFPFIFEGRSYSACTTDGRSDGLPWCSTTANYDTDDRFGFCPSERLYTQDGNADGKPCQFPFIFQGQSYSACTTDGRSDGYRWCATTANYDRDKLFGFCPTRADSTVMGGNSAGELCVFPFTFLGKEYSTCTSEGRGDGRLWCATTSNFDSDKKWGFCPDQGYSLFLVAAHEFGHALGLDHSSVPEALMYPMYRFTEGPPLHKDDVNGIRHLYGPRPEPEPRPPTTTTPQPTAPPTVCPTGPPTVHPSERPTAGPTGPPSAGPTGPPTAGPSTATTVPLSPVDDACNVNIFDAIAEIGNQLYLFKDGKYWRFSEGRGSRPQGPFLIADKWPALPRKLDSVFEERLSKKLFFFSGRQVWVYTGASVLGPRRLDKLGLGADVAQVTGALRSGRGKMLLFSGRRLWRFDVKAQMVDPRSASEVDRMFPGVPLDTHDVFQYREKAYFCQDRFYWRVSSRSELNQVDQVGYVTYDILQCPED

With Active MMP-9 enzyme the “extended time course of MMP-9 catalyzed hydrolysis of collagen” value (“extended time course” for short) [1] was “The 10-mer is less effective at preventing the destruction of collagen at long time points (FIG. 9) than is the 9-mer (FIG. 10)”, the “extended time course” value [2] was “The 10-mer is less effective at preventing the destruction of collagen at long time points (FIG. 9) than is the 9-mer (FIG. 10)” and the “extended time course” value [3] was “the 19-mer effectively inhibits the MMP-9 catalyzed hydrolysis of collagen to beyond 1000 minutes”.
